Eight variants from the supplement of paper PMC12855868 can be followed below.

The chains are these.
B1: library; numbered along this chain (parent)
chain: MAAAGGARLLRAASAVLGGPAGRWLHHAGSRAGSSGLLRNRGPGGSAEASRSLSVSARARSSSEDKITVHFINRDGETLTTKGKVGDSLLDVVVENNLDIDGFGACEGTLACSTCHLIFEDHIYEKLDAITDEENDMLDLAYGLTDRSRLGCQICLTKSMDNMTVRVPETVADARQSIDVGKTS

The variants in this series derive from B1. Put plainly: scaled log2 fold change in cell abundance, elesclomol vs control (0 = silent mean, 1 = nonsense mean) (scaled log2 ratio); higher = higher viability under elesclomol (loss of FDX1 cuproptosis function). The following applies: glucose 10 mM.
[1] abbreviates: with ABC1 FDX1 KO, elesclomol 5 nM, 14 days.
[2] abbreviates: with HEK293T FDX1 KO, elesclomol 40 nM, 11 days.
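Note: variant abundance is its share of total variant reads in each endpoint sample, from next-generation sequencing of the integrated ORF PCR-amplified out of genomic DNA.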

Consider MAAAGGARLLRAASAVLGGPAGRWLHHAGSRAGSSGLLRNRGPGGSAEASRSLSVSARARSSSEDKITVHFINRDGETLTTKGKVGDSLLDVVVENNLDIDGFGACEGTLACSTCHLIFEDHIYEKADAITDEENDMLDLAYGLTDRSRLGCQICLTKSMDNMTVRVPETVADARQSIDVGKTS [L127A], for which the “scaled log2 fold change” value under setting [1] is 0.297 and the “scaled log2 fold change” value under setting [2] stood at 1.31.

For the variant MAAAGGARLLRAASAVLGGPAGRWLHHAGSRAGSSGLLRNRGPGGSAEASRSLSVSARARSSSEDKITVHFINRDGETLTTKGKVGDSLLDVVVENNLDIDGFGACEGTLACSTCHLIFEDHIYEQLDAITDEENDMLDLAYGLTDRSRLGCQICLTKSMDNMTVRVPETVADARQSIDVGKTS [K126Q], the “scaled log2 fold change” value is -0.973 under setting [1] and -0.036 under setting [2].

For MAAAGGARLLRAASAVLGGPAGRWLHHAGSRAGSSGLLRNRGPGGSAEASRSLSVSARARSSSEDKITVHFINRDGETLTTKGKVGDSLLDVVVENNLDIDGFGACEGTLACSTCHLIFEDHIYEVLDAITDEENDMLDLAYGLTDRSRLGCQICLTKSMDNMTVRVPETVADARQSIDVGKTS [K126V], the “scaled log2 fold change” value under setting [1] was found to be 0.162 and the “scaled log2 fold change” value under setting [2] is 0.807.

MAAAGGARLLRAASAVLGGPAGRWLHHAGSRAGSSGLLRNRGPGGSAEASRSLSVSARARSSSEDKITVHFINRDGETLTTKGKVGDSLLDVVVENNLDIDGFGACEGTLACSTCHLIFEDHIYERLDAITDEENDMLDLAYGLTDRSRLGCQICLTKSMDNMTVRVPETVADARQSIDVGKTS [K126R]: the “scaled log2 fold change” value under setting [1] was -0.769 and the “scaled log2 fold change” value under setting [2] was -0.286.

For MAAAGGARLLRAASAVLGGPAGRWLHHAGSRAGSSGLLRNRGPGGSAEASRSLSVSARARSSSEDKITVHFINRDGETLTTKGKVGDSLLDVVVENNLDIDGFGACEGTLACSTCHLIFEDHIYESLDAITDEENDMLDLAYGLTDRSRLGCQICLTKSMDNMTVRVPETVADARQSIDVGKTS [K126S], the “scaled log2 fold change” value was -0.46 under setting [1] and -0.133 under setting [2].

Take MAAAGGARLLRAASAVLGGPAGRWLHHAGSRAGSSGLLRNRGPGGSAEASRSLSVSARARSSSEDKITVHFINRDGETLTTKGKVGDSLLDVVVENNLDIDGFGACEGTLACSTCHLIFEDHIYEYLDAITDEENDMLDLAYGLTDRSRLGCQICLTKSMDNMTVRVPETVADARQSIDVGKTS [K126Y]: the “scaled log2 fold change” value is, setting by setting: under setting [1], -0.263; under setting [2], 0.0548.

Consider MAAAGGARLLRAASAVLGGPAGRWLHHAGSRAGSSGLLRNRGPGGSAEASRSLSVSARARSSSEDKITVHFINRDGETLTTKGKVGDSLLDVVVENNLDIDGFGACEGTLACSTCHLIFEDHIYETLDAITDEENDMLDLAYGLTDRSRLGCQICLTKSMDNMTVRVPETVADARQSIDVGKTS [K126T], for which the “scaled log2 fold change” value was -0.51 under setting [1] and -0.395 under setting [2].

MAAAGGARLLRAASAVLGGPAGRWLHHAGSRAGSSGLLRNRGPGGSAEASRSLSVSARARSSSEDKITVHFINRDGETLTTKGKVGDSLLDVVVENNLDIDGFGACEGTLACSTCHLIFEDHIYEWLDAITDEENDMLDLAYGLTDRSRLGCQICLTKSMDNMTVRVPETVADARQSIDVGKTS [K126W]: the “scaled log2 fold change” value reads like this: under setting [1], 0.411; under setting [2], 0.186.
